Tests used:
Test in all cases: cell-based or functional assay
[1] = target: HIV-1 92RW009 envelope glycoprotein (Env) (HIV-1)
[2] = target: HIV-1 92RW024 envelope glycoprotein (Env) on pseudovirus (HIV-1)
[3] = target: HIV-1 Env of isolate MGRM-AE-001 (HIV-1)
[4] = target: HIV-1 Env of isolate MGRM-D-001 (clade D) (HIV-1)
[5] = target: HIV-1 Env of isolate MGRM-D-005 (clade D) (HIV-1)
[6] = target: HIV-1 Env of isolate MGRM-D-014 (clade D) (HIV-1)
[7] = target: HIV-1 Env of isolate MGRM-D-021 (clade D) (HIV-1)
[8] = target: HIV-1 Env of pseudovirus MGRM-Chronic-B-001, clade B (HIV-1)
[9] = target: HIV-1 Env of pseudovirus PVO.4 (Acute), clade B (HIV-1)
[10] = target: HIV-1 IAVI-C22 envelope protein (Env) on pseudovirus (HIV-1)
[11] = target: HIV-1 IAVI-C3 envelope protein (Env) on pseudovirus (HIV-1)
[12] = target: HIV-1 MGRM-A-002 envelope glycoprotein (Env) (HIV-1)
[13] = target: HIV-1 MGRM-A-003 envelope glycoprotein (Env) (HIV-1)
[14] = target: HIV-1 MGRM-A-013 envelope glycoprotein (Env) (HIV-1)
[15] = target: HIV-1 MGRM-C-015 Env (HIV-1)
[16] = target: HIV-1 MGRM-C-017 Env (HIV-1)
[17] = target: HIV-1 MGRM-C-020 Env (HIV-1)
[18] = target: HIV-1 MGRM-C-022 Env (HIV-1)
[19] = target: HIV-1 Env of isolate 92RW008 (HIV-1)
[20] = target: HIV-1 Env of isolate 92UG005 (HIV-1)
[21] = target: HIV-1 Env of isolate 92WR009 (HIV-1)
[22] = target: HIV-1 Env of isolate 93UG077 (HIV-1)
[23] = target: HIV-1 Env of isolate 94KE105 (subtype AC), on pseudovirus (HIV-1)
[24] = target: HIV-1 Env of isolate JRCSF (HIV-1) (UniProt P20871)
[25] = target: HIV-1 Env of isolate MGRM-AG-002 (CRF_AG), on pseudovirus (HIV-1)
[26] = target: HIV-1 Env of isolate MGRM-AG-005 (CRF_AG), on pseudovirus (HIV-1)
[27] = target: HIV-1 Env of isolate MGRM-Chronic-B-002 (HIV-1)
[28] = target: HIV-1 Env of isolate MGRM-D-001 (HIV-1)
[29] = target: HIV-1 Env of isolate MGRM-D-004 (HIV-1)
[30] = target: HIV-1 Env of isolate MGRM-D-021 (HIV-1)
[31] = target: HIV-1 Env of isolate MGRM-D-028 (subtype D), on pseudovirus (HIV-1)
[32] = target: HIV-1 Env of isolate MGRM-F1-020 (subtype F), on pseudovirus (HIV-1)
[33] = target: HIV-1 Env of isolate MGRM-G-025 (HIV-1)
[34] = target: HIV-1 JR-CSF Env L125A (HIV-1 (isolate JR-CSF)) (UniProt P20871)
[35] = target: HIV-1 JR-CSF Env V127A (HIV-1 (isolate JR-CSF)) (UniProt P20871)

Chain of 1443_C16 (PG16) (TCN-116) (antibody) (VH): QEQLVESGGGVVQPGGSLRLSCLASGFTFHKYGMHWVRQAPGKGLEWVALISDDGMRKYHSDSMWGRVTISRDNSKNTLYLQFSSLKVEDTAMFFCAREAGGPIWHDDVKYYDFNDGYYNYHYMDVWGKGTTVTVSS
Chain of 1443_C16 (PG16) (TCN-116) (antibody) (VL): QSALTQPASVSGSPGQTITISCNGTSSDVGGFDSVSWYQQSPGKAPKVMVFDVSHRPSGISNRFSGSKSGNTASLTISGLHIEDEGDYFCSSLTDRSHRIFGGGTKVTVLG

Substance | IC50 (µg/ml), pseudovirus neutralization [1] [µg/mL] | IC50 (µg/ml), pseudovirus neutralization [2] [µg/mL] | IC50 (µg/ml), pseudovirus neutralization [3] [µg/mL] | IC50 (µg/ml), pseudovirus neutralization [4] [µg/mL] | IC50 (µg/ml), pseudovirus neutralization [5] [µg/mL] | IC50 (µg/ml), pseudovirus neutralization [6] [µg/mL] | IC50 (µg/ml), pseudovirus neutralization [7] [µg/mL] | IC50 (µg/ml), pseudovirus neutralization [8] [µg/mL] | IC50 (µg/ml), pseudovirus neutralization [9] [µg/mL] | neutralization IC50 [10] [µg/mL] | neutralization IC50 [11] [µg/mL] | IC50 (µg/ml), pseudovirus neutralization [12] [µg/mL] | IC50 (µg/ml), pseudovirus neutralization [13] [µg/mL] | IC50 (µg/ml), pseudovirus neutralization [14] [µg/mL] | IC50 [15] [µg/mL] | IC50 [16] [µg/mL] | IC50 [17] [µg/mL] | IC50 [18] [µg/mL] | neutralization IC50 [19] [µg/mL] | IC50 [20] [µg/mL] | further results
2F5 (antibody) | 39.1 | 8.22 | 0.29 | 0.63 | > 50 | 2.22 | > 50 | 0.55 | > 50 | > 50 | > 50 | > 50 | 7.37 | 0.66 | > 50 | > 50 | > 50 | > 50 | – | – | –
2G12 (antibody) | 26.1 | > 50 | > 50 | > 50 | 25.7 | > 50 | 23 | 0.08 | 0.8 | > 50 | > 50 | > 50 | > 50 | > 50 | 1.75 | > 50 | 18.6 | > 50 | – | – | –
4E10 (antibody) | > 50 | 8.88 | 0.85 | 1.84 | 35.2 | 3.24 | 13.3 | 1.46 | 18.3 | 1.02 | 5 | 6.45 | 5.94 | 1.46 | 2.52 | 1.47 | 2.8 | 5.71 | – | – | –
1443_C16 (PG16) (TCN-116) (antibody) | 0.11 | 0.08 | 4.33 | > 50 | 19.7 | 0.003 | > 50 | > 50 | 5.43 | 0.0687 | 14.8 | 0.004 | 2.65 | 0.09 | 0.26 | 1.8 | > 50 | 0.25 | – | – | –
1495_C14 (PGC14) (antibody) | > 50 | > 50 | > 50 | > 50 | > 50 | 48 | > 50 | > 50 | > 50 | 9.5 | > 50 | > 50 | > 50 | > 50 | > 50 | > 50 | > 50 | > 50 | – | – | –
5136_H01 (PGT-131) (antibody) | – | – | – | – | – | – | – | – | – | – | – | – | – | – | – | – | – | – | 1.01 | 0.854 | neutralization IC50 [21]: 3.12 µg/mL; neutralization IC50 [22]: > 50 µg/mL; IC50, single-round pseudovirus neutralization [23]: 0.013 µg/mL; IC50 [24]: 0.029 µg/mL; IC50, single-round pseudovirus neutralization [25]: > 50 µg/mL; IC50, single-round pseudovirus neutralization [26]: 1.04 µg/mL; IC50 [27]: > 50 µg/mL; IC50 [28]: > 50 µg/mL; IC50 [29]: 2.01 µg/mL; IC50 [30]: 0.106 µg/mL; IC50, pseudovirus neutralization [31]: > 50 µg/mL; IC50, pseudovirus neutralization [32]: > 50 µg/mL; IC50, pseudovirus neutralization [33]: 7.75 µg/mL; Fold IC50 increase relative to wild-type [34]: 2.5 fold; Fold IC50 increase relative to wild-type [35]: 0.6 fold
5147_N06 (PGT-130) (antibody) | – | – | – | – | – | – | – | – | – | – | – | – | – | – | – | – | – | – | 0.039 | 0.959 | neutralization IC50 [21]: 1.27 µg/mL; neutralization IC50 [22]: 21.4 µg/mL; IC50, single-round pseudovirus neutralization [23]: 0.004 µg/mL; IC50 [24]: 0.01 µg/mL; IC50, single-round pseudovirus neutralization [25]: > 50 µg/mL; IC50, single-round pseudovirus neutralization [26]: 0.54 µg/mL; IC50 [27]: > 50 µg/mL; IC50 [28]: > 50 µg/mL; neutralization IC50 [4]: > 10 µg/mL; neutralization IC80 [4]: > 10 µg/mL; neutralization IC90 [4]: > 10 µg/mL; neutralization IC95 [4]: > 10 µg/mL; IC50 [29]: 1.21 µg/mL; IC50 [30]: 0.156 µg/mL; IC50, pseudovirus neutralization [31]: 0.825 µg/mL; IC50, pseudovirus neutralization [32]: 9.73 µg/mL; IC50, pseudovirus neutralization [33]: 8.45 µg/mL; Fold IC50 increase relative to wild-type [34]: 2.5 fold; Fold IC50 increase relative to wild-type [35]: 0.8 fold
5343_B08 (PGT-135) (antibody) | – | – | – | – | – | – | – | – | – | – | – | – | – | – | – | – | – | – | 1.42 | > 50 | neutralization IC50 [21]: > 50 µg/mL; neutralization IC50 [22]: > 50 µg/mL; IC50, single-round pseudovirus neutralization [23]: 0.063 µg/mL; IC50 [24]: 0.131 µg/mL; IC50, single-round pseudovirus neutralization [25]: > 50 µg/mL; IC50, single-round pseudovirus neutralization [26]: > 50 µg/mL; IC50 [27]: > 50 µg/mL; IC50 [28]: > 50 µg/mL; IC50 [29]: > 50 µg/mL; IC50 [30]: > 50 µg/mL; IC50, pseudovirus neutralization [31]: > 50 µg/mL; IC50, pseudovirus neutralization [32]: 0.168 µg/mL; IC50, pseudovirus neutralization [33]: 0.592 µg/mL; Fold IC50 increase relative to wild-type [34]: 0.9 fold; Fold IC50 increase relative to wild-type [35]: 1.4 fold
b12 (antibody) | > 50 | > 50 | 25.9 | > 50 | > 50 | > 50 | 5.23 | 0.75 | > 50 | 3.6 | 5 | > 50 | > 50 | 7.04 | 13.3 | > 50 | > 50 | > 50 | – | – | –

Reference: patent US20200024330A1
